{
  "source": "paper PMC4664265",
  "about": "“Substrate-Induced Dimerization of Engineered Monomeric Variants of Triosephosphate Isomerase from Trichomonas vaginalis” (PLoS ONE, 2015)",
  "molecules": {"B1": {"name": "TvTIM1 I45V (enzyme)", "chain": "MRTFFVGGNWKANPKTVEEAEKLIEMLNGAKVEGNVEVVVAAPFVFLPTLQQKLRKDWKVSAENVFTKPNGAFTGEVTVPMIKSFGIEWTILGHSERRDILKEDDEFLAAKAKFALENGMKIIYCCGEHLSEREAGKASEFVSAQIEKMIPAIPAGKWDDVVIAYEPIWAIGTGKVASTQDAQEMCKVIRDILAAKVGADIANKVRILYGGSVKPNNCNELAACPDVDGFLVGGASLEPGFINIVNSNVHSK"}, "B2": {"name": "Triosephosphate isomerase 1 from Trichomonas vaginalis, wild type (enzyme, UniProt A2EGX9 1-252, looked up)", "chain": "B1 chain with V45I", "notes": "triosephosphate isomerase TvTIM1 of Trichomonas vaginalis; Homodimer in solution (gel filtration, AUC); the rows are of one chain with another; also called TvTIM1; TIM1WT"}, "B3": {"name": "TvTIM1 I45L (enzyme)", "chain": "B1 chain with V45L"}},
  "key": {"[1]": {"biological_target": "TvTIM1 I45G-Q52C double mutant (Trichomonas vaginalis) (UniProt A2EGX9)"}, "[2]": {"biological_target": "TvTIM1 I45Y (Trichomonas vaginalis) (UniProt A2EGX9)"}, "[3]": {"biological_target": "TvTIM1 I45F (Trichomonas vaginalis) (UniProt A2EGX9)"}, "[4]": {"biological_target": "TvTIM1 I45G (Trichomonas vaginalis) (UniProt A2EGX9)"}, "[5]": {"biological_target": "TvTIM1 I45G (Trichomonas vaginalis) (UniProt A2EGX9)", "experiment": "SEC; gel filtration at 7 mg/ml (~260 μM) in Tris pH 7.4, 100 mM NaCl; dimer to monomers"}, "[6]": {"biological_target": "TvTIM1 I45A (Trichomonas vaginalis) (UniProt A2EGX9)"}, "[7]": {"biological_target": "TvTIM1 I45A (Trichomonas vaginalis) (UniProt A2EGX9)", "experiment": "SEC; gel filtration at 7 mg/ml (~260 μM) in Tris pH 7.4, 100 mM NaCl; dimer to monomers"}, "[8]": {"biological_target": "TvTIM1 I45A (Trichomonas vaginalis) (UniProt A2EGX9)", "experiment": "AUC"}, "[9]": {"biological_target": "the molecule itself", "experiment": "SEC; gel filtration at 7 mg/ml (~260 μM) in Tris pH 7.4, 100 mM NaCl; dimer to monomers"}, "[10]": {"biological_target": "the molecule itself", "experiment": "AUC; sedimentation velocity, 20°C, 129,024 rcf, absorbance at 280 nm, c(s) with SEDFIT; protein 7 to 35 μM, no ligand"}},
  "note": "Where a chain is given by its changes, count along the chain named. Names and notes keep the numbering of the source.",
  "data": [
    {"molecule": "TvTIM1 I45G-Q52C double mutant (from UniProt A2EGX9 1-252) (enzyme)", "values": [
      {"measurement": "Kcat/Km of I45G-Q52C before cross-linking (substrate DGAP, coupled assay, 25°C)", "setting": "[1]", "value": 39700, "unit": "M⁻¹ s⁻¹"},
      {"measurement": "Kcat/Km of the purified cross-linked I45G-Q52C dimer (substrate DGAP, coupled assay, 25°C)", "setting": "[1]", "value": "2.5e+06", "unit": "M⁻¹ s⁻¹"}
    ]},
    {"molecule": "TvTIM1 I45Y (from UniProt A2EGX9) (enzyme)", "values": [
      {"measurement": "Kcat/Km (substrate DGAP, coupled assay, 25°C; enzyme at 12 nM)", "setting": "[2]", "value": 12200, "unit": "M⁻¹ s⁻¹"}
    ]},
    {"molecule": "TvTIM1 I45F (from UniProt A2EGX9) (enzyme)", "values": [
      {"measurement": "Kcat/Km (substrate DGAP, coupled assay, 25°C; enzyme at 10 nM)", "setting": "[3]", "value": 33300, "unit": "M⁻¹ s⁻¹"}
    ]},
    {"molecule": "TvTIM1 I45G (from UniProt A2EGX9) (enzyme)", "values": [
      {"measurement": "Kcat/Km (substrate DGAP, coupled assay, 25°C; enzyme at 5 nM)", "setting": "[4]", "value": 40800, "unit": "M⁻¹ s⁻¹"},
      {"measurement": "percent of the total protein in the dimer peak", "setting": "[5]", "value": 6, "unit": "%"}
    ]},
    {"molecule": "TvTIM1 I45A (from UniProt A2EGX9) (enzyme)", "values": [
      {"measurement": "Kcat/Km (substrate DGAP, coupled assay, 25°C; enzyme at 2 nM)", "setting": "[6]", "value": 198000, "unit": "M⁻¹ s⁻¹"},
      {"measurement": "percent of the total injected protein in the dimer peak", "setting": "[7]", "value": 13, "unit": "%"},
      {"measurement": "percent of the total protein in the dimer peak", "setting": "[7]", "value": 3, "unit": "%"},
      {"measurement": "percent dimer with 20 μM PGH", "setting": "[8]", "value": 17, "unit": "%"},
      {"measurement": "percent dimer with 250 μM PGH", "setting": "[8]", "value": 38, "unit": "%"},
      {"measurement": "percent dimer with 600 μM PGH", "setting": "[8]", "value": 38, "unit": "%"},
      {"measurement": "percent dimer with 1000 μM PGH", "setting": "[8]", "value": 44, "unit": "%"},
      {"measurement": "percent dimer with 2000 μM PGH", "setting": "[8]", "value": 46, "unit": "%"}
    ]},
    {"molecule": "B1", "values": [
      {"measurement": "stoichiometry N", "setting": "[9]", "value": 2}
    ]},
    {"molecule": "B2", "values": [
      {"measurement": "stoichiometry N", "setting": "[10]", "value": 2}
    ]},
    {"molecule": "B3", "values": [
      {"measurement": "stoichiometry N", "setting": "[9]", "value": 2}
    ]}
  ]
}
